Data: patent US10577424 (BEIJING MABWORKS BIOTECH, dated 2020)
Where two headings read alike, the source gives them in different places.

T1: human VISTA (ECD)-his (Sino Biological, Cat #:13482-H08H) (human, UniProt Q9H7M9 33-194)
T1 construct: extracellular domain; Bought protein; also called hVISTA(ECD)-his; recombinant human VISTA(ECD)-his; not shown: his tag
T1 sequence (looked up): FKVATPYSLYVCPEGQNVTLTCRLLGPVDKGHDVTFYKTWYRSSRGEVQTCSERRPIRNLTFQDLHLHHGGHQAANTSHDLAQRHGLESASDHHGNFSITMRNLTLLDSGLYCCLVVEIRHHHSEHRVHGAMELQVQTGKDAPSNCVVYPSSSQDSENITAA

T2: mouse VISTA expressed on HEK293A cells (mouse, UniProt Q9D659 33-308)
T2 construct: also called HEK293A/mouseVISTA; HEK293A/mouse VISTA
T2 sequence: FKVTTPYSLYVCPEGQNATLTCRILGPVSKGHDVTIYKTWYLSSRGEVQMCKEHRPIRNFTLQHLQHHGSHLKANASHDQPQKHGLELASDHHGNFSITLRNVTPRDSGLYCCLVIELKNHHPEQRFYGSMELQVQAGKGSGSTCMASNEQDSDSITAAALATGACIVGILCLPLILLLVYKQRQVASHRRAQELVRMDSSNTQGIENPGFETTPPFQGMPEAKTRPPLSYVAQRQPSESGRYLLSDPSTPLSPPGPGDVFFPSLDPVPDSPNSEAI

T3: mouse VISTA-his (Sino Biological, Cat #:511550-M08H) (mouse, UniProt Q9D659 33-191)
T3 construct: extracellular domain; Bought protein; also called muVISTA-his; mouse VISTA (ECD)-his; not shown: his tag
T3 sequence (looked up): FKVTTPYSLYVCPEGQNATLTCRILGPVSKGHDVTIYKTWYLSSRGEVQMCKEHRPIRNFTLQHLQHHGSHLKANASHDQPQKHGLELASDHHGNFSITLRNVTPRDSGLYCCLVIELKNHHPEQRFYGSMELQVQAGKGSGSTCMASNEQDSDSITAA


Assays:
[1] = target: T1, human VISTA (ECD)-his (Sino Biological, …); experiment: ELISA, plate coated with human VISTA (ECD)-his, OD450 [panel A]
[2] = target: T4, monkey VISTA (ECD)-his (Sino Biological, Cat #: 90801-K08H) (cynomolgus monkey); experiment: ELISA, plate coated with monkey VISTA (ECD)-his, OD450 [panel B]
T4 construct: extracellular domain; Bought protein; also called cynoVISTA(ECD)-his; cynomolgus VISTA (ECD)-his

[3] = target: T2, mouse VISTA expressed on HEK293A cells; experiment: FACS on HEK293A/mouse VISTA cells, MFI [panel C]
[4] = target: T4, monkey VISTA (ECD)-his (Sino …); experiment: ELISA, plate coated with monkey VISTA (ECD)-his, OD450 [panel B]; remark: listed apart in the source
[5] = target: T3, mouse VISTA-his (Sino Biological, Cat …); experiment: ELISA, plate coated with mouse VISTA-his, OD450 [panel C]
[6] = target: T1, human VISTA (ECD)-his (Sino Biological, …); experiment: ELISA, plate coated with human VISTA (ECD)-his, OD450 [panel A]; remark: listed apart in the source
[7] = target: T1, human VISTA (ECD)-his (Sino Biological, …); experiment: SPR (BIAcore 8K), human VISTA (ECD)-his coupled to the chip, antibody injected
Description: (§1) They were also tested in SPR assays for their binding affinities to human and monkey VISTA with the BIAcore™ 8K instrument (GE Life Sciences). Briefly, 100-200 response units (RU) of human VISTA (ECD)-his protein (Sino Biological, CN, Cat #:13482-H08H) or monkey VISTA (ECD)-his protein (Sino Biological, CN, Cat #:90801-K08H) were coupled to CM5 biosensor chips (Cat #: BR-1005-30, GE Life Sciences), followed by blocking of un-reacted groups with 1M ethanolamine. Serially diluted antibodies at concentrations ranging from 0.3 µM to 10 µM were injected into the SPR running buffer (HBS-EP buffer, pH7.4, GE Life Sciences; US; Cat #:BR-1006-69) at 30 µL/minute. The binding capacitities were calculated with the RUs of blank controls subtracted. The association rate (k_a) and dissociation rate (k_d) were calculated using the one-to-one Langmuir binding model (BIA Evaluation Software, GE Life Sciences). The equilibrium dissociation constant K_D was calculated as the k_d/k_a ratio.

[8] = target: T4, monkey VISTA (ECD)-his (Sino …); experiment: SPR (BIAcore 8K), monkey VISTA (ECD)-his coupled to the chip, antibody injected
Description: as §1

EC50 (read off the curve) [1]	EC50 (read off the curve) [2]	EC50 (read off the curve) [4]	EC50 (read off the curve) [6]	Kd [7]	Kd [8]	Binder	binding result [3]	binding result [5]
~0.02 µg/mL	~0.03 µg/mL	~0.03 µg/mL	~0.03 µg/mL	0.0139 nM	–	chimeric 161E5 antibody (antibody, human IgG1, kappa, V domains shown) VH: QVQLKQSGAELVRPGASVKLSCKASGYSFTDYYINWVKQRPGQGLEWIARIFPGSGNAYYNEKFKDKATLTVEKSSSAAYMQLSSLTSEDSAVYFCARDDSFYGYWYFDVWGTGTTVTVSS VL: NIMMTQSPSSLAVSAGEKVTMSCKSSQSVLYSSNQKNYLAWYQQKPGQSPKLLIYWASTRESGVPDRFTGSGSGTDFTLTISSVQAEDLAVYYCHQYLSSYTFGGGTKLEIKR	no binding (tested: log 4 ng/ml (10000 ng/ml))	no binding (tested: about log 4.3 ng/ml (about 20000 ng/ml))
–	~0.03 µg/mL	–	~0.03 µg/mL	–	–	161E5-VH2VL2 (antibody, human IgG1, kappa, V domains shown, One of the 5 humanized 161E5 antibodies, human IgG1/kappa; also called humanized antibody 161E5-VH2VL2) VH: QVQLVQSGAEVKKPGASVKVSCKASGYSFTDYYINWVRQAPGQGLEWIARIFPGSGNAYYNEKFKDRATLTVDKSTSTAYMELSSLRSEDTAVYYCARDDSFYGYWYFDVWGQGTTVTVSS VL: NIMMTQSPATLSVSPGERATLSCKSSQSVLYSSNQKNYLAWYQQKPGQAPRLLIYWASTRESGVPDRFSGSGSGTEFTLTISSLQSEDFAVYYCHQYLSSYTFGGGTKVEIKR	–	–
–	~0.03 µg/mL	–	~0.03 µg/mL	–	–	161E5-VH0VL0 (antibody, human IgG1, kappa, V domains shown, One of the 5 humanized 161E5 antibodies, human IgG1/kappa; also called humanized antibody 161E5-VH0VL0) VH: QVQLVQSGAEVKKPGASVKVSCKASGYSFTDYYINWVRQAPGQGLEWMGRIFPGSGNAYYNEKFKDRVTMTRDTSTSTVYMELSSLRSEDTAVYYCARDDSFYGYWYFDVWGQGTTVTVSS VL: EIVMTQSPATLSVSPGERATLSCKSSQSVLYSSNQKNYLAWYQQKPGQAPRLLIYWASTRESGIPARFSGSGSGTEFTLTISSLQSEDFAVYYCHQYLSSYTFGGGTKVEIKR	–	–
–	~0.03 µg/mL	–	~0.03 µg/mL	–	–	161E5-VH3VL2 (antibody, human IgG1, kappa, V domains shown, One of the 5 humanized 161E5 antibodies, human IgG1/kappa; also called humanized antibody 161E5-VH3VL2) VH: QVQLVQSGAEVKKPGASVKVSCKASGYSFTDYYINWVRQRPGQGLEWIARIFPGSGNAYYNEKFKDRATLTVDKSTSTAYMELSSLRSEDTAVYFCARDDSFYGYWYFDVWGQGTTVTVSS VL: NIMMTQSPATLSVSPGERATLSCKSSQSVLYSSNQKNYLAWYQQKPGQAPRLLIYWASTRESGVPDRFSGSGSGTEFTLTISSLQSEDFAVYYCHQYLSSYTFGGGTKVEIKR	–	–
–	~0.03 µg/mL	–	~0.03 µg/mL	0.0226 nM	0.0399 nM	161E5-VH3VL3 (antibody, human IgG1, kappa, V domains shown, One of the 5 humanized 161E5 antibodies, human IgG1/kappa; also called humanized antibody 161E5VH3VL3) VH: QVQLVQSGAEVKKPGASVKVSCKASGYSFTDYYINWVRQRPGQGLEWIARIFPGSGNAYYNEKFKDRATLTVDKSTSTAYMELSSLRSEDTAVYFCARDDSFYGYWYFDVWGQGTTVTVSS VL: NIMMTQSPATLSVSPGERATLSCKSSQSVLYSSNQKNYLAWYQQKPGQSPRLLIYWASTRESGVPDRFSGSGSGTEFTLTISSLQSEDFAVYYCHQYLSSYTFGGGTKVEIKR	–	–
–	~0.03 µg/mL	–	~0.03 µg/mL	0.00236 nM	0.0145 nM	161E5-VH2VL3 (antibody, human IgG1, kappa, V domains shown, One of the 5 humanized 161E5 antibodies, human IgG1/kappa; also called humanized antibody 161E5VH2VL3) VH: QVQLVQSGAEVKKPGASVKVSCKASGYSFTDYYINWVRQAPGQGLEWIARIFPGSGNAYYNEKFKDRATLTVDKSTSTAYMELSSLRSEDTAVYYCARDDSFYGYWYFDVWGQGTTVTVSS VL: NIMMTQSPATLSVSPGERATLSCKSSQSVLYSSNQKNYLAWYQQKPGQSPRLLIYWASTRESGVPDRFSGSGSGTEFTLTISSLQSEDFAVYYCHQYLSSYTFGGGTKVEIKR	–	–
